Assay results: the DeepSol protein solubility set

Assay: soluble on expression in E. coli; label from the status in PepcDB or PDB records

Sequence	soluble on expression in E. coli
SNTPSAEADWSPGLELHPDYKTWGPEQVCSFLRRGGFEEPVLLKNIRENEITGALLPCLDESRFENLGVSSLGERKKLLSYIQRLVQIHVDTMKVI	soluble
MSQTAAPLAQLNAMDTAQFVRTLGGIYEHSPWVAEQAAGQRPFASADALAAAMRRAVDGAGEGPQLKLVRAHPELAGKAAVRGELTAESTREQASAGLDQCSPEEFARLQALNARYNDKFGFPFILAVRGYDRHGIIDVFARRLENDRATELRASLEQIHRIAGFRLHDLISGKLAAALEHHHHHH	not soluble
MSLQLDEYLRQLAPSMTQWRRDFHLHAESGWLEFRTASKVADILDGLGYQLALGRDVIDADSRMGLPDEETLARAFERAREQGAPERWLPAFEGGFAGVVATLDTGRPGPTLAFRVDMDALDLNEQHDDSHRPHRDHFASCNAGMMHACGHDGHTAIGLGLAHVLKQYAAQLNGVIKLIFQPAEEGTRGARAMVAAGVVDDVDYFTAIHIGTGVPAGTVVCGGDNFMATTKFDVQFSGVAAHAGGKPEDGRNALLAAAQAALGLHAIPPHSAGASRVNVGVMQAGTGRNVVPSSALLKVETRGESEAINQYVFERAQHVVAGAAAMYEARYELRMMGAATASAPSPAWVDYLREQAARVPGVQQAVDRIAAPAGSEDATLMMARVQARGGLASYMIFGTELSAGHHNEKFDFDESVMAVAVETLARVALNFPWQRGVEGHHHHHH	soluble
MQFSTLIRVAVFAVLAIATLADYDDNSVGTIPVAVDLDYFSNYVKKGGPQGPLRFGKRRGPSGPLRFGKRSSFHVAPAAEDVASWYQ	not soluble
MGHHHHHHSHMYAEERRRQIASLTAVEGRVNVTELAGRFDVTAETIRRDLAVLDREGIVHRVHGGAVATQSFQTTELSLDTRFRSASSAKYSIAKAAMQFLPAEHGGLFLDAGTTVTALADLISEHPSSKQWSIVTNCLPIALNLANAGLDDVQLLGGSVRAITQAVVGDTALRTLALMRADVVFIGTNALTLDHGLSTADSQEAAMKSAMITNAHKVVVLCDSTKMGTDYLVSFGAISDIDVVVTDAGAPASFVEQLRERDVEVVIAE	soluble
MSLNFLEFEKPIAELEAKIEALRDVSRHGGDSAIDLDKEIEQLEKKSLELKKKIFSDLGAWETAQLARHPLRPYTLDYVQHVFEEFDELAGDRAFADDKAIVGGIARLEGRPVMIIGHQKGRETKEKVRRNFGMPKPEGYRKALRLMEMAERFNMPIITFIDTAGAYPGVGAEERGQSEAIAKNLKVMSGLKVPVICNVVGEGGSGGALAIGVGDYVNMLQYSTYSVISPEGCASILWRDSDKAPQAAEAMGLTAPRLKELELIDEIIEEPLGGAHRDHVKMAENMKATLLRQLEDLEQLDEESLRERRYQRLMNYGYC	not soluble
MIDHTHLRLFQFCDSQFPTGAFSHSFGLETYIQRNIIHDDHTFIAWLKMFLQEQLTYSDGLAMRLVYDALENDDTQKVLHIDKLMFVQNLPKETRVGAKQMGTRMVKLALELYNSPWIAWYHQQMQDKKAKLNPAICFTMLGHHLGVDIETIIDYYLYQNVSSLTQNAVRAIPLGQTAGQKIVTHMIPYIEGTRKQIFELKEADFGMTAPGLELNQMAHENVNVRIFISLEHHHHHH	not soluble
SQIPASEQETLVRPKPLLLKLLKSVGAQKDTYTMKEVLFYLGQYIMTKRLYDEKQQHIVYCSNDLLGDLFGVPSFSVKEHRKIYTMIYRNLVVVNQQESSDSGTSVSENHHHHHH	soluble
MVPTTPFTIENTPVGRGNSGARSHKEPSAKRKKPTSTPTVRCGTVPQEPSTSAATVTQKPAGSTMATANITETRRIDISSCSDRPLIPCTASGVPLTTFSNKSLDSILNQDSEIVGGISQKDLNELRNRGPNMTVKQLLAKNFKNYKVRQSLTSELATEFVNRTLSENDVPMGALIMPPMEDVQESIVKESKTYNYAAASGGSLPFSNPHSEGILIRSPAIKGPHTLRDVLDSLGSVGTPAANQTLKDVLGSFNSQQPIDPTPSKTLKDVLGSLDLDNDYDLKLKMEGLDHDLKVESPTDAELGLDEFANQILSSKYKGTSLDTDHTAYPGNHLPWPVLWKNPVPKYIQGEIYCYVDGCTYSPMSEIIKSGKFMVPLDHPVEFIFKDRPILVTMEELLTANGINMSKAQHYRMLQGLLQKSGVHIRADYAERLHEFQALMDGLEIEDKPRPALKLSSDKLPLMCIYPDIYMNALGRRIHGAVIVDSSGVQETIGTRTLITRHQIAEFLLENPESPDSPDITTAPSKNSTIGDMMRPKSKIRRTHYVDLNKMVWRHFKDCQAAGIQINGKQLKDQAMRYAKDMGLESFRGSEGWLDAFKRRHRIDLKSMTGYPVCYENDMYEEVDKECRELDMESHMLHQQPPSFFPQSAPDEFAASFFSSLSGFPQQMVVQEPPTTSSSNHLQNMINSMMTPPVVDSRMMPSTSSAGASGASASSQEPDGGGDTIFNVMRSCQIKVADKEVSHALDTLRTYILEHDPAAMSLLVPLQERLATTSSGAIGRDMPSTSSSS	soluble
MAHHHHHHMIFIHSLRLRHNLVSKNVERCTVFAFLDADFITAIRHKVRELKRAARRQPHRSALEVYSQERPTRHHVLPPPHYFSEKVGVDCCVLYIPEVEDFPLLDAFFFVNSNPVTLVGLRMATAGEHHTTASTVRQFTECLAAYFNGWEELSRDMSWETIYVQHADSTPMNDWQRCDVVNSDNVSKKENREIVAFWEEEVHQYLAVISSADARRGEAL	not soluble
MILTTTHEIEGRRIERYLGIVFGEAIVGANVLRDLLAQIRDIVGGRSGAYEAELRRARETALAEMAEAARRLGADAVVGVDLDYEVLGSGNSMLMVTASGTAVKLAP	soluble
SYSSAFAQAASSSLATSSAISRAFASVSSASAASSLAYNIGLSAARSLGIASDTALAGALAQAVGGVGAGASASAYANAIARAAGQFLATQGVLNAVNASSLGSALANALSDSAANSAVSGNYLGVSQN	soluble
MRLSFLTLQRRHALRDALRHKPAPRCRTQERTQSVQNGMPTRSVARLEHHHHHH	not soluble
MTATIQNEKVIVSISDKGAELQSVRLKEDNTEYLWQGDSTYWGRRAPILFPIVGRLVDNTYYVDGKPYSLTQHGFARDLTFFVKEQSETKITYIVTSNEETLKKYPYEFELLVSYELNGQSVHITYEVNNPTSKEMFFSIGAHPGFNFPLLDGESFTDYHLSFNGSERLETSVLEGPYLSNKKQLIAENTTELPLTYDLFKNDALIFEHMNTNEISIRSHKHNKFVKVEFDGFPFVGVWTPGDNAPFLCIEPWYGIADEVNPAKDFKNKKGIQSLQANETFTCRYSITIGLEHHHHHH	soluble
AEHSHESTLVQAGERIHITAQGVSAIETIDTRTISDAWQYRHLVVQNRPLTEVLDELNRHRRGHILYDRAQLQGIDMAVVLPLDDTDRALQLLVDSLPMIRIRTLTPYLVLVDLAPA	not soluble
MLEQMGIAAKQASYKLAQLSSREKNRVLEKIADELEAQSEIILNANAQDVADARANGLSEAMLDRLALTPARLKGIADDVRQVCNLADPVGQVIDGGVLDSGLRLERRRVPLGVIGVIYEARPNVTVDVASLCLKTGNAVILRGGKETCRTNAATVAVIQDALKSCGLPAGAVQAIDNPDRALVSEMLRMDKYIDMLIPRGGAGLHKLCREQSTIPVITGGIGVCHIYVDESVEIAEALKVIVNAKTQRPSTCNTVETLLVNKNIADSFLPALSKQMAESGVTLHADAAALAQLQAGPAKVVAVKAEEYDDEFLSLDLNVKIVSDLDDAIAHIREHGTQHSDAILTRDMRNAQRFVNEVDSSAVYVNASTRFTDGGQFGLGAEVAVSTQKLHARGPMGLEALTTYKWIGIGDYTIRA	soluble
MKTAIIQLPGLNRDRDMVAALHHITGVEPLKIWQTESTIPDVDVIVIPGGFSYGDYLRCGAIGARTPVLQAVREKAQKGVTVIGICNGFQILLEAGLLPGTLMRNTSLKFVCREIKLEVVNVNTKFSRYYSKGQIICCPVAHHDGNYFVDSETLKQMEENEQIIFRYAENTNPNGSVNDIAGIINKAGNILGMMPHPENFIEPAHGGTDGRLFFQSALELAKG	not soluble
MFGRLKQKVKEKTGRAKATTLPAEVDDAMGYFKNLTPRVKDLHKSMTNLEDISKWQKKASFSGTLENYSRLGDKINVKPFMDAVDARMGAEADAVKGVLAICEKYKSFYQNEGKLHADSIANLNRTRLDMDSAADKYANNETEVNKTRLDNSTTEFEVACERMRELANGIKTIESNHSSWQDGLMKEIKVALRK	not soluble
MSLLSKVVTQIKGFLHDSVDKASDDGRTARQLIRDVGENEEKIKEALVESRSQAIISKQKVEDKQSAIALSKKRAAKAVELDKEDLARTILVEKRQQESDLAALQNQQAKFDNIVVTLTSRFNDIQKKRSEMERKADSIDLRSKVAAATEEATKLLDVGNFASYDSASKVFDRLEDNIAKKEAKSQARGEFIDAEKDKQDELVSLDRHGLDESIEDELAALRAMNKKQELEHHHHHH	not soluble
SSGLVPRGPLGSHMDAVDATMEKLRAQCLSRGASGIQGLARFFRQLDRDGSRSLDADEFRQGLAKLGLVLDQAEAEGVCRKWDRNGSGTLDLEEFLRALRPPMSQAREAVIAAAFAKLDRSGDGVVTVDDLRGVYSGRAHPKVRSGEWTEDEVLRRFLDNFDSSEKDGQVTLAEFQDYYSGVSASMNTDEEFVAMMTSAWQLKL	soluble
MTFTGLPPEDVPALMTGAVIPHPSVAGRADAYLPSPCIQNHAANLAFLPDGTLSCVWFGGTMEGMRDISIYMSRLPPGSGRWSEPEKMSDDPEKSEQNPLIFNAPDGKTWLLYTSQTSGNQDGSIVKCRISDDGGKTFGPVQILCDSPGTFVRQQIVVNDRGDWLLPIFRCVGLEGQRWSGDADTAAVLISRDGGASWQMRDIPDSIGAVHMNILPLGGCEMIAFYRNRFAETILSSRSADGGETWSPPEPTELPNNNSSIQATVLDNGGIAMVYNHSNATMSDARRQSLYDEIEGDECGENAAVVADAGRKAVWGVPRAPLSLAISRDGGRTFPHRIDLDTGDGFCLSNNSKDSLNREFSYPSVIEGSDGTLHVAYTYYRRAIKYVRLAPRALPLEHHHHHH	soluble
MPVAISLPTSSTSHFFPRRRGHANHRYQRFSGAQSSTEDPYIRKNQTGVIIIGAGLAGLAAANQLTSKRIPFLLLEASDGVGGRVRTDIVDGFFLDRGFQIFITAYPEAKKLLDYEALDLQRFYAGAKVFYGGKFHTVADPLRHFWDSVASLANPIGSVVDKGLIALTRARVLIKSDEEILTAADEVPTIDLLRKIGFSETILDRFFRPFFGGIFFDRDLETTSKLFDFVFRCLALGENTLPAMGIGEISNQLAAKLPAKSVLLNTRVASIEYPNGSGSDPPSVRLQDGSVMKAELGVIIAVEQPEVNKLLDGIRDPVITKPARSTICLYFTAEPNQIPVQDPVLFLNGSNSGIINNMFFATNVARTYAPPGKALVSVSLIGLFEDRTDDDLAAEVLRELSGWFGESPVMSWKHLKTYRIQFAQPNQCPPTDLVKSPRVGSGLYLSGDYMTSATFDGALVSGRRAVEVLLRETGLIK	soluble
MGSDKIHHHHHHMRRDVFIETRNVMDFRQKVRALEDFSGEPGFALVFGQAGRGKTETARHYHAMNGGIFLRVMQGWSQCAFLQELCFQVCGLRPRSSATCKAKIIEALDSMPQTLFVDEADRLHVDRVEDLRDVFDLTSSTVVLIGEQELRGLLSTRRRIWSRVKQVVEFGPVAEEDVAILGDEAAGLDIAPEACSQIVRLADGDFRLVWSFIHQLELTAKTHGIQQINTELVARVSKLVASWRQQ	not soluble
MKKTLATLFLLTCLGSSSAYADNALILQTDFSLKDGAVSAMKGVAFGVDHNLKIFDLTHEIPPYNIWEGAYRLYQTASYWPQGSVFVSVVDPGVGTDRKSIVLKTKNGQYFVSPDNGTLTLVAESLGIESVREIDEKANRLKGSEKSYTFHGRDVYAYTGARLASGAITFEQVGPELPAKVVELSYQKAKATKGEVKGNIPILDIQYGNVWSNISDELLNQAGIKLNDTLCVTISEGSRQKYAGKMPYVASFGDVPEGQPMVYLNSLLNVSVALNMDNFAQKHQVASGADWNIDVKKCDK	not soluble
